Test results taken from patent US20140050749A1 (PURDUE PHARMA L P, published 2014).
Where no end group is shown, it is not given here. [ ]: non-standard residue; d: D form. Gly(cPent) = N[C@H](C(=O)O)C1CCCC1

B1: I-[cpg]-TFKNWPF (peptide)
peptide: I[Gly(cPent)]TFKNWPF
notes: Survivin 19-27 derivative
B2: A-[cpg]-GIGILTV (peptide)
peptide: AXGIGILTV
modifications: [cpg] (L-cyclopentylglycine) at position 2
notes: MART-1 nonamer derivative
B3: Native Survivin 19-27 peptide ISTFKNWPF (peptide)
peptide: ISTFKNWPF
B4: Native Survivin 130-138 peptide KVRRAIEQL (peptide)
peptide: KVRRAIEQL
B5: K-[cpg]-RRAIEQL (peptide)
peptide: K[Gly(cPent)]RRAIEQL
notes: Survivin 130-138 derivative
B6: E-[c5g]-AGIG-[amv]-LTV (peptide)
peptide: EXAGIGXLTV
modifications: [c5g] (aminocyclopentyl carboxylic acid) at position 2; [amv] at position 7 (abbreviation not defined in the filing)
notes: MART-1 decamer derivative with a double substitution

Tests used:
[1] = target: T1, HLA-A2 (HLA-A0201) MHC class I complex (human); assay: ITopia soluble class I plate-based stability assay, 37 C
T1 construct: the methods section names HLA-A0201; also called HLA-A201; MHCI
Procedure: (§1) MHCI complexes were dissociated in each test well using stripping buffer, and the place-holder peptide and beta 2 microglobulin were washed away. 100 uM of the test peptide was added to appropriate wells along with additional beta 2 microglobulin and the anti-HLA ABC antibody, and the plates were incubated overnight at 21° C. Plates were washed, and fresh buffer was added to each well. Plates were shifted to 37° C., and the appropriate wells were read at 0, 0.5, 1, 1.5, 2, 4, 6 and 8 hours.

[2] = target: T1, HLA-A2 (HLA-A0201) MHC class I complex; assay: ITopia soluble class I plate-based stability assay; reference is the native survivin peptide (SEQ ID NO: 31)
Procedure: as §1

Row | Binder | Half Life of Complex [1] [h] | fold increase in the half life of the HLA-A2 peptide complex compared to the native survivin peptide [2] [fold]
1 | B1 | 1.9 | –
2 | B2 | > 100 | –
3 | B3 | 0.24 | –
4 | B4 | 1.9 | –
5 | B5 | 50.6 | > 20
6 | B6 | 11.9 | –
